Target: human DCIR (dendritic cell immunoreceptor), full length, isotype 1 (human) (UniProt Q9UMR7)
Test: cell-based or functional assay

UniProt Q9UMR7, sequence (Q9UMR7 whole entry): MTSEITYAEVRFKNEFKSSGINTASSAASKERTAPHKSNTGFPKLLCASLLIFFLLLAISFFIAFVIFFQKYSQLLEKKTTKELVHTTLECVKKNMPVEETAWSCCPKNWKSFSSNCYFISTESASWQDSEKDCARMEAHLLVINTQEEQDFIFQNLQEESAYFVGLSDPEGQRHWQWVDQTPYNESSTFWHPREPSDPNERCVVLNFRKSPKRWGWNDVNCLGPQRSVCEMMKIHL

Substance: HIV-1 NL4-3balenv virions (R5-tropic; NL4-3 with the env gene of HIV-1 Bal)
- reduction in virus transfer from IM-MDDC to CD4+ T cells after DCIR-specific siRNA, in absence of EFV: 30%
- reduction in virus transfer from IM-MDDC to CD4+ T cells after DCIR-specific siRNA, in cells treated with EFV: 40%
